Earlier results, collected in PMC3020241.

Biological target: arrestin-1 (dimer) (Mus musculus) (UniProt P20443)

**Q.** For arrestin-1 (from UniProt P20443), which Kd is on record?
**A.** 57.5 µM
